Measurements reported in US20240228604A1 (ALCHEMAB THERAPEUTICS, published 2024).

How the values were obtained:
[1] = molecular target: T1, UNC5C recombinant human antigen, Fc-tagged (R&D Systems, #1005-UN) (human, UniProt O95185 41-380, limits assumed); assay: ELISA, antigen down
T1 construct: Bought protein; also called rhUNC5C; not shown: Fc tag of the bought protein

[2] = molecular target: T2, full-length human UNC5D on fixed HEK293 cells (Retrogenix panel) (human, UniProt Q6UXZ4 33-953); assay: Retrogenix cell microarray, fixed HEK293 cells
T2 construct: whole, on cells
T2 sequence (looked up): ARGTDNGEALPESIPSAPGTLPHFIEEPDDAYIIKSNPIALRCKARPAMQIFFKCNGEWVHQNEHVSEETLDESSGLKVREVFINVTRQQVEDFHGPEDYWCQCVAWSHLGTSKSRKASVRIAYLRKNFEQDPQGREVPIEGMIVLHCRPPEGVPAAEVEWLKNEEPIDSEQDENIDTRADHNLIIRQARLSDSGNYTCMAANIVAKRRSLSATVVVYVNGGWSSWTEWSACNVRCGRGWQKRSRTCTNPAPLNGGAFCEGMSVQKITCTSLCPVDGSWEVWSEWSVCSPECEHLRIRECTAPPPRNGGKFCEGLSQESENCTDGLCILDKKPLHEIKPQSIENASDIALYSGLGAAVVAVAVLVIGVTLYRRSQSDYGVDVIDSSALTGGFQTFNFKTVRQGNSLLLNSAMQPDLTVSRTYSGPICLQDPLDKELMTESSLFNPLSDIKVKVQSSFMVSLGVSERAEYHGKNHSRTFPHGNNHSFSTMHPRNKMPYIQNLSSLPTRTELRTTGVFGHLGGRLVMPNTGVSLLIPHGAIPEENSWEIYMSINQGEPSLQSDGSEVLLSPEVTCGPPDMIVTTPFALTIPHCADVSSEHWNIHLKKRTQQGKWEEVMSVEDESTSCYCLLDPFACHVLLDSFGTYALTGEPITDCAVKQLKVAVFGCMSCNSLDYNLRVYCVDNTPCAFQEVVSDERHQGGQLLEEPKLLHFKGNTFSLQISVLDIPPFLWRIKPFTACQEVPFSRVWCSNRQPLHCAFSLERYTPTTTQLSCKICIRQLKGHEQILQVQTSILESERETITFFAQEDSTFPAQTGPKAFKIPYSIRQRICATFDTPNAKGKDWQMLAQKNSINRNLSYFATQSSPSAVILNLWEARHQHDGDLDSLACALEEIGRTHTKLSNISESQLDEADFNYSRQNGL

[3] = molecular target: T3, full-length human DCC on fixed HEK293 cells (Retrogenix panel) (human, UniProt P43146 26-1447); assay: Retrogenix cell microarray, fixed HEK293 cells
T3 construct: whole, on cells

[4] = molecular target: T4, full-length human DSCAM on fixed HEK293 cells (Retrogenix panel) (human, UniProt O60469 18-2012); assay: Retrogenix cell microarray, fixed HEK293 cells
T4 construct: whole, on cells

[5] = molecular target: T5, Human recombinant UNC5A (BLI antigen) (Human, UniProt Q6ZN44 26-306); assay: BLI, antigen captured by His tag, antibody as analyte
T5 construct: Captured by His tag; also called UNC5A ectodomain
Text: (§1) Antigen was loaded as ligand and dipped into antibody as analyte during association, and assay buffer during dissociation.
(§2) Purified recombinant antigens were purchased from a commercial supplier or prepared and purified in-house and details are shown in Table 2.

[6] = molecular target: T6, Human recombinant UNC5B (BLI antigen) (Human, UniProt Q8IZJ1 27-377); assay: as above
T6 construct: also called UNC5B ectodomain
Text: as §1, §2

[7] = molecular target: T7, Human recombinant UNC5D (BLI antigen) (Human, UniProt Q6UXZ4 33-379); assay: as above
T7 construct: also called UNC5D ectodomain
Text: as §1, §2

[8] = molecular target: T8, Human Neogenin (R&D Systems catalogue number 8607-NE; BLI antigen) (Human, UniProt Q92859 34-1105); assay: as above
T8 construct: extracellular domain; Bought protein; also called neogenin-1 ectodomain; NEO1
T8 sequence (looked up): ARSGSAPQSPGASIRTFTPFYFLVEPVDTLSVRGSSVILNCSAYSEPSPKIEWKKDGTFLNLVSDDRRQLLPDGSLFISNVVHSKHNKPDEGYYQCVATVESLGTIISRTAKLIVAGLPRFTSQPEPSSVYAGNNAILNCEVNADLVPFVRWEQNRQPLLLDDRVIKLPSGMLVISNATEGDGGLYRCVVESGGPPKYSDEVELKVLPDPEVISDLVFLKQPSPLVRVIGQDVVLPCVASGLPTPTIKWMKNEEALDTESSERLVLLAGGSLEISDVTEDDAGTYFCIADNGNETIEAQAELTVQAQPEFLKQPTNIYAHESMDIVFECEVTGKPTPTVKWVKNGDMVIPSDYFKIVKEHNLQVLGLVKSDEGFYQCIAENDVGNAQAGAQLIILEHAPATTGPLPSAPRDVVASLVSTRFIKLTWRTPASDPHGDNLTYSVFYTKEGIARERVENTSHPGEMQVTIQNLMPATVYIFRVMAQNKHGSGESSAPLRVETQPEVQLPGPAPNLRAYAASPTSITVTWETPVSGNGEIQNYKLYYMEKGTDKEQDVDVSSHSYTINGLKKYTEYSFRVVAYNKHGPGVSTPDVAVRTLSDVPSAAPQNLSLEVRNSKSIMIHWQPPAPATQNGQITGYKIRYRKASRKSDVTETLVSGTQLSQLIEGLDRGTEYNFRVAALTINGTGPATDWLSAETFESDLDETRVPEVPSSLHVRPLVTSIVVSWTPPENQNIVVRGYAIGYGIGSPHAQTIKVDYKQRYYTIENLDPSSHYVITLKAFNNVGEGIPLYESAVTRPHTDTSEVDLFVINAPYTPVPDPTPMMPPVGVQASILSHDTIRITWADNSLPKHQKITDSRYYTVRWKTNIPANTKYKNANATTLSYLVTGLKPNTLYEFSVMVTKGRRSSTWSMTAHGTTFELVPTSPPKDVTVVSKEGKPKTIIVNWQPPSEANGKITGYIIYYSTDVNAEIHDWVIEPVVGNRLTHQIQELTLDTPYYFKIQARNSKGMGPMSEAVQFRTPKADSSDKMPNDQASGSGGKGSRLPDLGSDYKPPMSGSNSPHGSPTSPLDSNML
Text: as §1, §2

[9] = molecular target: T9, Human recombinant DCC (BLI antigen) (Human, UniProt P43146 26-1097); assay: as above
T9 construct: also called Netrin receptor DCC ectodomain
Text: as §1, §2

T9 sequence (P43146 other isoform, or with tags, fused parts or gaps): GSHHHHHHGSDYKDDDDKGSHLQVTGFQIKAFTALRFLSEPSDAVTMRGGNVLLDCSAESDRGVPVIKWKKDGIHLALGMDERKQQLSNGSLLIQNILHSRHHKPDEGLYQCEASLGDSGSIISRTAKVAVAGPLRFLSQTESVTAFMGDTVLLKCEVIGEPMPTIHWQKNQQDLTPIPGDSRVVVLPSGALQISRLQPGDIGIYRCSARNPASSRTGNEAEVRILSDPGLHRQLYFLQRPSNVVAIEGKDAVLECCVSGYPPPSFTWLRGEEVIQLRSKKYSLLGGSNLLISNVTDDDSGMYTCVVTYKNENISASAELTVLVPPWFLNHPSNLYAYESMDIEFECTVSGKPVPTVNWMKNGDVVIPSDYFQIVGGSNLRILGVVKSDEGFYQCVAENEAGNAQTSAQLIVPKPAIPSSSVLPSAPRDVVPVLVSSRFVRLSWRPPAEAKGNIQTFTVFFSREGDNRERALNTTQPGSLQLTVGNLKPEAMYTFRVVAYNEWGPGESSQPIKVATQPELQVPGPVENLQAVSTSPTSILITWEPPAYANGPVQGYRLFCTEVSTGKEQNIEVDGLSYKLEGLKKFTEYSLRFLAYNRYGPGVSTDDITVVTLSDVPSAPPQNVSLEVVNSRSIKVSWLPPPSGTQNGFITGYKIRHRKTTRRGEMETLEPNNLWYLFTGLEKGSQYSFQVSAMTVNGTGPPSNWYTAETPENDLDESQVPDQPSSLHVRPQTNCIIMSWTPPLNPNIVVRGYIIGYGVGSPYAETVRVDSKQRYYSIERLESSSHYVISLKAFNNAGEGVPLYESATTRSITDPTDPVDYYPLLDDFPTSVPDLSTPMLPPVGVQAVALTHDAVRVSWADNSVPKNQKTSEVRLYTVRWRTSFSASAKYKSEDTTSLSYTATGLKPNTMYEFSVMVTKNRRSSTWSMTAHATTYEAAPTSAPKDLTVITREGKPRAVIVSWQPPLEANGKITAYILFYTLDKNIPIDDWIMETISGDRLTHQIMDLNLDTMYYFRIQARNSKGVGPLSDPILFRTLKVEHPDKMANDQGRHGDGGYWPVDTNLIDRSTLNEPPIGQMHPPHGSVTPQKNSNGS
T7 sequence (Q6UXZ4 other isoform, or with tags, fused parts or gaps): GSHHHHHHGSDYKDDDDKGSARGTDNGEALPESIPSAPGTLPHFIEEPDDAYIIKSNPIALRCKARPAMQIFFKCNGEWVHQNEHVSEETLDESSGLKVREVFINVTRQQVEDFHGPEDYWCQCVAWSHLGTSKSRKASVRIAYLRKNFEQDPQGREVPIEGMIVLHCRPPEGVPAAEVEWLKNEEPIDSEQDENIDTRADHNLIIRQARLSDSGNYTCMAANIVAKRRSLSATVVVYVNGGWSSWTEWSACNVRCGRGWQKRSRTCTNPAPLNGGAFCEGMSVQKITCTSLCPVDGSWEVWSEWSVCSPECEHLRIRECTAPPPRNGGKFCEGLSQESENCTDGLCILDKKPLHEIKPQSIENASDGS
T3 sequence (P43146 26-1447): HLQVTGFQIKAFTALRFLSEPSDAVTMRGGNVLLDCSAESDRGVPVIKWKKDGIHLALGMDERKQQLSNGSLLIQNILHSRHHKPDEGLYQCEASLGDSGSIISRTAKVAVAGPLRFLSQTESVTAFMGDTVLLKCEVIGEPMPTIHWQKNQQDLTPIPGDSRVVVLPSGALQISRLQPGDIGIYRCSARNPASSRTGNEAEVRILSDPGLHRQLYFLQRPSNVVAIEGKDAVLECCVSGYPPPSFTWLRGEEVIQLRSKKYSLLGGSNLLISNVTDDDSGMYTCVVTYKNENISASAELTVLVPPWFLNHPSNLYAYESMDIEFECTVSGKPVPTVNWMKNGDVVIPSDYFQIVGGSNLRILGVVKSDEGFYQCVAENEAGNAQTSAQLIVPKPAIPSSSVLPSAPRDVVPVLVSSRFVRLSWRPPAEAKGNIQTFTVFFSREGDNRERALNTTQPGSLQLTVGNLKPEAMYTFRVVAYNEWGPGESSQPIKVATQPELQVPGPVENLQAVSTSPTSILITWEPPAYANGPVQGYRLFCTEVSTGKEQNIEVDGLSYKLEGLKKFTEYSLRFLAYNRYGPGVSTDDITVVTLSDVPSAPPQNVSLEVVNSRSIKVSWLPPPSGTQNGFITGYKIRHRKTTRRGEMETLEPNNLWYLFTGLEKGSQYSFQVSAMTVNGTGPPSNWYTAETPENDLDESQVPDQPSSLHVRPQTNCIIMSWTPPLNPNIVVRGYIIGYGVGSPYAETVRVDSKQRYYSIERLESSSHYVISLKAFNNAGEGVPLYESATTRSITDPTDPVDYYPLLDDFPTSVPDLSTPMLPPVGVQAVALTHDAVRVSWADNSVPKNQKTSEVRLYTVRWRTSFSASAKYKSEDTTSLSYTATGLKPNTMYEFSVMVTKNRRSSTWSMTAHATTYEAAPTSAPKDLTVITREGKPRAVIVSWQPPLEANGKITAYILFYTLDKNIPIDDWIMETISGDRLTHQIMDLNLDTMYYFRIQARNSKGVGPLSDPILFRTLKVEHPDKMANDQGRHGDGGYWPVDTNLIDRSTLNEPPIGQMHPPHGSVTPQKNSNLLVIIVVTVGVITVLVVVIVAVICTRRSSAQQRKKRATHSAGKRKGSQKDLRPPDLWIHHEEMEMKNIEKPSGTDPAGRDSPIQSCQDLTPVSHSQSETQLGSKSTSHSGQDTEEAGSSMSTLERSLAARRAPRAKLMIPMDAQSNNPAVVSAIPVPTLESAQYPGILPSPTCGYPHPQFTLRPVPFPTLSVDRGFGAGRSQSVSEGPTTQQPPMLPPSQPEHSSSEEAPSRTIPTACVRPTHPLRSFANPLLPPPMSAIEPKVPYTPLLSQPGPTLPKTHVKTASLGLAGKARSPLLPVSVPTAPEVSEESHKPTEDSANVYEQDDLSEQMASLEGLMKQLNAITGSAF
T5 sequence (Q6ZN44 other isoform, or with tags, fused parts or gaps): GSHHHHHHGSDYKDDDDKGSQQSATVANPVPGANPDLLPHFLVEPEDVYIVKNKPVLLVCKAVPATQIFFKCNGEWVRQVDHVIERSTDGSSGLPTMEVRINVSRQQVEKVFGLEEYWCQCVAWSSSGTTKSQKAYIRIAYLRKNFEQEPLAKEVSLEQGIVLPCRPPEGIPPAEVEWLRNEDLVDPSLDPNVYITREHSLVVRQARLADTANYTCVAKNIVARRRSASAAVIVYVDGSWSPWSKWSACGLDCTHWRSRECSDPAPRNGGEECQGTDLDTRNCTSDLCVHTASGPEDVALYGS
T1 sequence (O95185 41-380 limits assumed): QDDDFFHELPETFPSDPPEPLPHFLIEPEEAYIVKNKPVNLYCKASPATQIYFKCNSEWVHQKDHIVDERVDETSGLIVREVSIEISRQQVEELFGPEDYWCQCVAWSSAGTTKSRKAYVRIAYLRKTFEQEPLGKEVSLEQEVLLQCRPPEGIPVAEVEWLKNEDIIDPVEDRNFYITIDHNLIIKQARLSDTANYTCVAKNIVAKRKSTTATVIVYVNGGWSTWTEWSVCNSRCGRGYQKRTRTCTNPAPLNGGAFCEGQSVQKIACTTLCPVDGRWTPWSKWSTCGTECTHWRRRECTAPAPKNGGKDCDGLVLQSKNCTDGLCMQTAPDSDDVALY

EC50 [1]: 8 nM | binding result [2]: no binding | binding result [3]: no binding | binding result [4]: no binding | binding result [5]: no binding (tested: up to 100 nM) | binding result [6]: no binding (tested: up to 100 nM) | binding result [7]: no binding (tested: up to 100 nM) | binding result [8]: no binding (tested: up to 100 nM) | binding result [9]: no binding (tested: up to 100 nM)
B1: ATL_0006178 (antibody, IgG1, V domains shown)
VH: QVQLQESGPGLVKPSETLSLTCTVSGGSISSYFWSWIRQPPGKGLEWIGYIHYSGTTNQNPSLKSRVTISVDKSKNQFSLKLSSVTAADTAVYYCARGRGMATLPFDYWGQGTLVTVSS
VL: not shown
notes: Combination variant of ATL_5262 (T82K, Q67 kept, N58Y); also called ATL_6178; ATL6178
